Results on 1 molecule are retold here after PMC12759081, “S-phase PARylation of microprotein RSMC enhances the function of Sororin in sister chromatid cohesion” (The EMBO Journal, 2025).

The Kd is a measure of binding affinity in units of concentration. Low values mean a tighter complex, high ones a looser complex.

Holding throughout (conditions): both partners purified
Assay [1] concerns the target T1, 6×His-3×Flag-PDS5B, Cy5-labelled (UniProt Q9NTI5 1-1447, Cy5 label).
T1 construct: PDS5B, cDNA in pFastBac1; primers run from the start codon to the stop codon; also called His-Flag-PDS5B; Cy5-labeled PDS5B; source: SF9 cells (baculovirus), purified (Ni2+ Sepharose); not shown: His6, N-terminal, kept; 3×Flag, N-terminal, kept
T1 sequence (looked up): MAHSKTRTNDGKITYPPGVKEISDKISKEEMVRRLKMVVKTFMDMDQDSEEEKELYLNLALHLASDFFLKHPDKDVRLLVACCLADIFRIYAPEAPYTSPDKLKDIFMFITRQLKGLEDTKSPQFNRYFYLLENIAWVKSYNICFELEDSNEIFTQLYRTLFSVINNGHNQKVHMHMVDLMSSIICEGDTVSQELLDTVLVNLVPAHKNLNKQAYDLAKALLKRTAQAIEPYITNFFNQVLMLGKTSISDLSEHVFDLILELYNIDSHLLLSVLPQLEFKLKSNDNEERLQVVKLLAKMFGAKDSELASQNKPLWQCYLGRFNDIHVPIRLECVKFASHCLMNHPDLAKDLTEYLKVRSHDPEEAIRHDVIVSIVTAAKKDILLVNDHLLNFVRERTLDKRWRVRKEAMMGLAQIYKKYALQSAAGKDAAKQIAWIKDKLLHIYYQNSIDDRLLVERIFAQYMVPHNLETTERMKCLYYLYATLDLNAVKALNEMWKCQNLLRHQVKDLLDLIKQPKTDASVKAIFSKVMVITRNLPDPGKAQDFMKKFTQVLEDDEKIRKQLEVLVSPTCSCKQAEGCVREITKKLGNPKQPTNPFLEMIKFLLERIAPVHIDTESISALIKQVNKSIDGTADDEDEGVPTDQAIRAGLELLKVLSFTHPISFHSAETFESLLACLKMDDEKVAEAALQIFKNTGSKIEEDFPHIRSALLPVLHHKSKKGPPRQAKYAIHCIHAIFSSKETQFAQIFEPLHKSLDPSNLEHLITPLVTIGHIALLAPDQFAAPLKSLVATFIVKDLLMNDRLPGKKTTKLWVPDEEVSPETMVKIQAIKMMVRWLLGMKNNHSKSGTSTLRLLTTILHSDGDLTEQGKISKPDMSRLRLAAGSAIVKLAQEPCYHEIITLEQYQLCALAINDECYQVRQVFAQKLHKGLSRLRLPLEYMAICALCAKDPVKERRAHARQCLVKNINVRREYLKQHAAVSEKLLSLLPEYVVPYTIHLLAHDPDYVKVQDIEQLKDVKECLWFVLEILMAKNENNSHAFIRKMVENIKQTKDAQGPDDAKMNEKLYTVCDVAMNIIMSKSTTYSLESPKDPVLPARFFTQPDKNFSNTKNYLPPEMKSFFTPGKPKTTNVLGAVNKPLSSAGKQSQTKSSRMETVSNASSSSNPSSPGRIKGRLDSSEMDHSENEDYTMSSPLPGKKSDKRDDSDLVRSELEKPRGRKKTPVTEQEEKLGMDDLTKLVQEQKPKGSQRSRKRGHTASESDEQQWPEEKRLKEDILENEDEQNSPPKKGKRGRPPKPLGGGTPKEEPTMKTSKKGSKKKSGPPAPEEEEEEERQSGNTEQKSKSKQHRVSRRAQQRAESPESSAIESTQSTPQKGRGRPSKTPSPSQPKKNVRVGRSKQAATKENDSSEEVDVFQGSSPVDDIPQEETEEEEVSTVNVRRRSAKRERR
The assay is described as follows: MST; Cy5-labelled PDS5B at 34 nM, partner in twofold dilutions; 25 °C, 50 mM Tris pH 7.4, 150 mM NaCl, 10% glycerol, 0.05% Tween-20; Monolith NT.115.

Assay [2] concerns the target T1, 6×His-3×Flag-PDS5B, Cy5-labelled. The experiment in a line: MST; competitive: 34 nM Cy5-PDS5B and Wapl dilutions combined 10 min at RT, then 17 nM Sororin added; 25 °C, 50 mM Tris pH 7.4, 150 mM NaCl, 10% glycerol, 0.05% Tween-20.
Assay [3] shares this target. The assay is described as follows: MST; competitive: 34 nM Cy5-PDS5B and Wapl dilutions combined 10 min at RT, then Sororin and RSMC added (17 nM each, 1:1 molar ratio); 25 °C, 50 mM Tris pH 7.4, 150 mM NaCl, 10% glycerol, 0.05% Tween-20.

B1: Wapl (natural protein, UniProt Q7Z5K2 1-1190, looked up)
chain: MTSRFGKTYSRKGGNGSSKFDEVFSNKRTTLSTKWGETTFMAKLGQKRPNFKPDIQEIPKKPKVEEESTGDPFGFDSDDESLPVSSKNLAQVKCSSYSESSEAAQLEEVTSVLEANSKISHVVVEDTVVSDKCFPLEDTLLGKEKSTNRIVEDDASISSCNKLITSDKVENFHEEHEKNSHHIHKNADDSTKKPNAETTVASEIKETNDTWNSQFGKRPESPSEISPIKGSVRTGLFEWDNDFEDIRSEDCILSLDSDPLLEMKDDDFKNRLENLNEAIEEDIVQSVLRPTNCRTYCRANKTKSSQGASNFDKLMDGTSQALAKANSESSKDGLNQAKKGGVSCGTSFRGTVGRTRDYTVLHPSCLSVCNVTIQDTMERSMDEFTASTPADLGEAGRLRKKADIATSKTTTRFRPSNTKSKKDVKLEFFGFEDHETGGDEGGSGSSNYKIKYFGFDDLSESEDDEDDDCQVERKTSKKRTKTAPSPSLQPPPESNDNSQDSQSGTNNAENLDFTEDLPGVPESVKKPINKQGDKSKENTRKIFSGPKRSPTKAVYNARHWNHPDSEELPGPPVVKPQSVTVRLSSKEPNQKDDGVFKAPAPPSKVIKTVTIPTQPYQDIVTALKCRREDKELYTVVQHVKHFNDVVEFGENQEFTDDIEYLLSGLKSTQPLNTRCLSVISLATKCAMPSFRMHLRAHGMVAMVFKTLDDSQHHQNLSLCTAALMYILSRDRLNMDLDRASLDLMIRLLELEQDASSAKLLNEKDMNKIKEKIRRLCETVHNKHLDLENITTGHLAMETLLSLTSKRAGDWFKEELRLLGGLDHIVDKVKECVDHLSRDEDEEKLVASLWGAERCLRVLESVTVHNPENQSYLIAYKDSQLIVSSAKALQHCEELIQQYNRAEDSICLADSKPLPHQNVTNHVGKAVEDCMRAIIGVLLNLTNDNEWGSTKTGEQDGLIGTALNCVLQVPKYLPQEQRFDIRVLGLGLLINLVEYSARNRHCLVNMETSCSFDSSICSGEGDDSLRIGGQVHAVQALVQLFLERERAAQLAESKTDELIKDAPTTQHDKSGEWQETSGEIQWVSTEKTDGTEEKHKKEEEDEELDLNKALQHAGKHMEDCIVASYTALLLGCLCQESPINVTTVREYLPEGDFSIMTEMLKKFLSFMNLTCAVGTTGQKSISRVIEYLEHC
notes: Wapl, cohesin-releasing factor; primers run from the start codon to the stop codon
As to B1, the Kd in assay [1] is approximately 4.7 µM. The “Kd of Wapl-PDS5B with Sororin added” value in assay [2] worked out at 25.3 µM. Further, the “Kd of Wapl-PDS5B with Sororin and RSMC added (1:1)” value in assay [3] was found to be 50.1 µM.
